Target: T1, PD-L1-his蛋白 (人PD-L1胞外区, his标签) (human, UniProt Q9NZQ7 19-238)
T1 construct: extracellular domain; also called PD-L1蛋白; PD-L1-his蛋白标准品; not shown: his tag
Experiment: sandwich ELISA, PD-L1 antibody as capture, biotinylated antibody X as detection, HRP-Streptavidin

T1 sequence (Q9NZQ7 19-238): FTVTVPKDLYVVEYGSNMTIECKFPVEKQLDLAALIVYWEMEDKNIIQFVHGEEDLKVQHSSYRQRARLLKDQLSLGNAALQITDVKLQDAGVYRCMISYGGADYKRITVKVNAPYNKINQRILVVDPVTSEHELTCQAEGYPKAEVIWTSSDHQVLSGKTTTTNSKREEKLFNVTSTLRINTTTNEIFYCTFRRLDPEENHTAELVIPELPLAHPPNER

binding result: binds
B1: 抗体X (非封阻型抗PD-L1抗体) (antibody, V domains shown)
VH: QVQLQQSGTELMKPGASVKISCKATGYTFSNYWIEWVKQRPGHGLEWIGEILPGSGNTNYNENFKGKATFTADTSSNTAYMQLSRLTSEDSAVYYCARERASTSWGQGTLVTVSA
VL: DIQMTQTTSSLSASLGDRVTITCSASQGISNYLNWYQQNPDGTVKLLIYYTSHLHSGVSSRFSGSGSGTDYSLTISNLEPEDIATYYCQQYVKLPWTFGGGTKLEIK
notes: Used biotin-labelled as the detection antibody; also called PD-L1抗体X; 第二抗体

From CN108997499A (BEIJING CHEST HOSPITAL CAPITAL MEDICAL UNIV; BEIJING …, dated 2018)
